Measured values published in PMC9905591, “A single point mutation expands the applicability of ostreolysin A6 in biomedicine” (Scientific Reports, 2023).

Target: T1, Ostreolysin A6 (Pleurotus ostreatus, UniProt P83467 1-138)
T1 sequence: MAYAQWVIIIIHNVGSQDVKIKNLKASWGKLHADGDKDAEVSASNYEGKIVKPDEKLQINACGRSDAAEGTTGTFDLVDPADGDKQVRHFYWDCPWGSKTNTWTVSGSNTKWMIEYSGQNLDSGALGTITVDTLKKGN
Test: cell-based or functional assay

B1: Δ48PlyB (pleurotolysin B) (domain or fragment, Pleurotus ostreatus, UniProt Q5W9E8 49-523, looked up)
chain: SQAGDTLNDVIQDPTRRNKLINDNNLLKGIIMGRDGPVPSSRELIVRPDTLRAIINNRATIETTTMEAEFTETLMESNYNSASVKVSAPFITANSEYSESSSFKNTETEKSMYTSSRYLFPQGRIDFTTPDSGFDDVIKLSPQFTSGVQAALAKATGTEKREALQNLFQEYGHVFRTKVHIGGVLSAHTMETFSRSENETEVKQDVKAGLEGAVKGWGGGATAGHGNTQGTITTSQNRKLNVKYIVNGGDYTKIQNTEEWVASTNQSEHWRVIEVTEVTAVADLLPQPIRGQVKDLLKPLLGKWVDVEKVPGLESLPVSVYRPKGAIPAGWFWLGDTADASKALLVKPTLPARSGRNPALTSLHQGSGMTEQPFVDLPQYQYLSTYFGSFAHDTPPGSTLRGLRPDHVLPGRYEMHGDTISTAVYVTRPVDVPFPEDECFDLKSLVRVKLPGSGNPPKPRSALKKSMVLFDSGEK
- hazard ratio against buffer, Kaplan-Meier survival of Colorado potato beetle larvae on OlyA6/PlyB-treated leaf discs: 3.5
